Assay results: patent publication US20170233472A1 (MacroGenics, published 2017)

B1: DART-A (bispecific antibody, IgG1)
chain 1: QLVLTQSPSASASLGSSVKLTCTLSSGHKTDTIDWYQQQPGKAPRYLMKLEGSGSYNKGSGVPDRFGSGSSSGADRYLTISSLQSEDEADYYCGTDYPGNYLFGGGTQLTVLGGGGSGGGGEVQLVESGGGLVQPGGSLRLSCAASGFTFSTYAMNWVRQAPGKGLEWVGRIRSKYNNYATYYADSVKGRFTISRDDSKNSLYLQMNSLKTEDTAVYYCVRHGNFGNSYVSWFAYWGQGTLVTVSSASTKGEVAACEKEVAALEKEVAALEKEVAALEKGGGDKTHTCPPCPAPEAAGGPSVFLFPPKPKDTLMISRTPEVTCVVVDVSHEDPEVKFNWYVDGVEVHNAKTKPREEQYNSTYRVVSVLTVLHQDWLNGKEYKCKVSNKALPAPIEKTISKAKGQPREPQVYTLPPSREEMTKNQVSLWCLVKGFYPSDIAVEWESNGQPENNYKTTPPVLDSDGSFFLYSKLTVDKSRWQQGNVFSCSVMHEALHNHYTQKSLSLSPGK
chain 2: QAVVTQEPSLTVSPGGTVTLTCRSSTGAVTTSNYANWVQQKPGQAPRGLIGGTNKRAPWTPARFSGSLLGGKAALTITGAQAEDEADYYCALWYSNLWVFGGGTKLTVLGGGGSGGGGQEQLVESGGGLVQPGGSLRLSCAASGFTFSDYYMSWVRQAPGKGLEWVATIYPSSGKTYYADSVKGRFTISSDNAKNSLYLQMNSLRAEDTAVYYCARDSYADDAALFDIWGQGTTVTVSSASTKGKVAACKEKVAALKEKVAALKEKVAALKE
chain 3: not shown
notes: Three chain Fc Region-containing diabody (knob/hole IgG1 CH2-CH3 with L234A/L235A); C-terminal lysine of the Fc chains may be removed post-translationally; also called ROR1×CD3 bispecific three chain diabody with parental anti-ROR1-VL and anti-ROR1-VH
B2: DART-C (bispecific antibody)
chain 1: QLVLTQSPSASASLGSSVKLTCTLSSGHKTDTIDWYQQQPGKAPRYLMKLEGSGSYNKGSGVPDRFSGSSSGADWYLTISSLQSEDEADYYCGTDYPGNYLFGGGTQLTVLGGGGSGGGGEVQLVESGGGLVQPGGSLRLSCAASGFTFSTYAMNWVRQAPGKGLEWVGRIRSKYNNYATYYADSVKGRFTISRDDSKNSLYLQMNSLKTEDTAVYYCVRHGNFGNSYVSWFAYWGQGTLVTVSSASTKGEVAACEKEVAALEKEVAALEKEVAALEKGGGDKTHTCPPCPAPEAAGGPSVFLFPPKPKDTLMISRTPEVTCVVVDVSHEDPEVKFNWYVDGVEVHNAKTKPREEQYNSTYRVVSVLTVLHQDWLNGKEYKCKVSNKALPAPIEKTISKAKGQPREPQVYTLPPSREEMTKNQVSLWCLVKGFYPSDIAVEWESNGQPENNYKTTPPVLDSDGSFFLYSKLTVDKSRWQQGNVFSCSVMHEALHNHYTQKSLSLSPGK
chain 2: QAVVTQEPSLTVSPGGTVTLTCRSSTGAVTTSNYANWVQQKPGQAPRGLIGGTNKRAPWTPARFSGSLLGGKAALTITGAQAEDEADYYCALWYSNLWVFGGGTKLTVLGGGGSGGGGQEQLVESGGGLVQPGGSLRLSCAASGFTFSDYYMSWVRQAPGKGLEWVATIYPSSGKTYYADSVKGRLTISSDNAKDSLYLQMNSLRAEDTAVYYCTRDSYADDAALFDIWGQGTTVTVSSASTKGKVAACKEKVAALKEKVAALKEKVAALKE
chain 3: not shown
notes: Three chain Fc Region-containing ROR1×CD3 diabody
B3: DART-32 (bispecific antibody)
chain 1: QLVLTQSPSASASLGSSVKLTCTLSSGHKTDTIDWYQQQPGKAPRYLMKLEGSGSYNKGSGVPDRFSGSSSGADWYLTISSLQSEDEADYYCGTDYPGNYLFGGGTQLTVLGGGGSGGGGEVQLVESGGGLVQPGGSLRLSCAASGFTFSTYAMNWVRQAPGKGLEWVGRIRSKYNNYATYYADSVKGRFTISRDDSKNSLYLQMNSLKTEDTAVYYCVRHGNFGNSYVSWFAYWGQGTLVTVSSGGCGGGKVAALKEKVAALKEKVAALKEKVAALKE
chain 2: QAVVTQEPSLTVSPGGTVTLTCRSSTGAVTTSNYANWVQQKPGQAPRGLIGGTNKRAPWTPARFSGSLLGGKAALTITGAQAEDEADYYCALWYSNLWVFGGGTKLTVLGGGGSGGGGQEQLVESGGGLVQPGGSLRLSCAASGFTFSDYYMSWVRQAPGKGLEWVATIYPSSGKTYYADSVKGRLTISSDNAKDSLYLQMNSLRAEDTAVYYCTRDSYADDAALFDIWGQGTTVTVSSGGCGGGEVAALEKEVAALEKEVAALEKEVAALEK
notes: ROR1×CD3 two chain diabody

Legend:
[1] = molecular target: T1, His-tagged soluble human ROR1 (shROR1-His) (human, UniProt Q01973 30-406); test: sandwich ELISA: plate coated with shROR1-His, serial dilutions of diabody, bound diabody detected with biotinylated CD3 and streptavidin-HRP; abs @450nm
T1 construct: also called ROR1 protein; immobilized ROR1; not shown: His-Tag
T1 sequence (Q01973 30-406): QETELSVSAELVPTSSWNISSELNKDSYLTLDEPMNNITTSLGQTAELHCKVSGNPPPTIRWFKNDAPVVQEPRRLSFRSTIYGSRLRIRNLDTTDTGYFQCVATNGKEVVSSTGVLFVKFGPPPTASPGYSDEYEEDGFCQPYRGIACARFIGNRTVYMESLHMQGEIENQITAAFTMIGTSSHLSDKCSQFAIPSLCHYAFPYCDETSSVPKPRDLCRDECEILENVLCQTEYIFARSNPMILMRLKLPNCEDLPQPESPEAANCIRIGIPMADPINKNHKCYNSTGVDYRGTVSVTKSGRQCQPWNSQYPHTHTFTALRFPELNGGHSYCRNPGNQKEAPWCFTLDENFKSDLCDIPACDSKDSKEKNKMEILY
Description: (§1) The ability of the bispecific ROR1×CD3 two and three chain diabodies DART-1 and DART-A to bind both ROR1 and CD3 was examined by a sandwich ELISA. Briefly, microtiter plates were coated with shROR1-His, the plates were washed and incubated with three-fold serial dilutions of DART-1 or DART-A. The amount of diabody binding to the immobilized ROR1 was assessed using a biotinylated CD3 detected with Streptavidin-HRP. All samples were analyzed on a plate reader and binding curves generated. […] The cells were washed twice incubated with biotin-conjugated mouse anti-EK-coil antibody that recognizes the E-coil/K-coil (EK) heterodimerization region (100 μL of 1 μg/mL mixed with 1:500 diluted streptavidin-phycoerythrin) for 45 min. The cells were then washed and resuspended with FACS buffer, and analyzed with a BD FCS Canto II flow cytometer using FlowJo v10 software.

[2] = molecular target: human ROR1 expressed on the surface of cancer cells (human, UniProt Q01973 30-937); test: cell-based or functional assay
human ROR1 expressed on the surface of cancer cells, sequence (Q01973 30-937): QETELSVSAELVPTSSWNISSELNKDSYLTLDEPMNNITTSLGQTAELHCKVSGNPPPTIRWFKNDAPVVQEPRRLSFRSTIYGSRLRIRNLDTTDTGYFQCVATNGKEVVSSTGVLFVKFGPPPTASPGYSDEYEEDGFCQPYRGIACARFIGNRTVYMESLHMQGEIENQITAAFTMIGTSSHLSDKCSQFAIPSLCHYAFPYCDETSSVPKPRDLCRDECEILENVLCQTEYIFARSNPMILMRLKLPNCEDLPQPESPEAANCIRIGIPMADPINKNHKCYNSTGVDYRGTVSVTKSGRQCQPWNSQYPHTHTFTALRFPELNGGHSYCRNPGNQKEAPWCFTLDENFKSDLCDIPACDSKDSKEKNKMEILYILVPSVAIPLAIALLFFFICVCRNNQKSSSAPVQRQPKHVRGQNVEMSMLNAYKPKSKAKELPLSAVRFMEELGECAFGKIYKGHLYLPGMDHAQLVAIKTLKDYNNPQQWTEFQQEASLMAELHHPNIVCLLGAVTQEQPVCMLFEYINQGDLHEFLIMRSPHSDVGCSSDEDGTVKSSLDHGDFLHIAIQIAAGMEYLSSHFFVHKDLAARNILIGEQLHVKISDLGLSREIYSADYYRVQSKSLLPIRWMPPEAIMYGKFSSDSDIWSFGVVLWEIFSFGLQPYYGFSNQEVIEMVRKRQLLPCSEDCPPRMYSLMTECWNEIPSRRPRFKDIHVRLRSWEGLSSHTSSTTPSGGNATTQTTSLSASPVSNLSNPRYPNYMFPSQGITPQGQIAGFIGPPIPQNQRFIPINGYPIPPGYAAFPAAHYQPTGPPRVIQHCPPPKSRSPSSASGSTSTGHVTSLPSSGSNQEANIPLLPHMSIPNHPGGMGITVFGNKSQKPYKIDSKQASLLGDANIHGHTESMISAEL

[3] = molecular target: T1, His-tagged soluble human ROR1 …; test: sandwich ELISA: plate coated with shROR1-His, serial dilutions of diabody, bound diabody detected with biotinylated CD3 and streptavidin-HRP; y axis 'Mean Value'
Description: as §1

[4] = molecular target: T1, His-tagged soluble human ROR1 …; test: SPR (Biacore), shROR1-His captured on anti-PentaHis surface, diabody 6.25-100 nM as analyte
Description: The binding affinity of DART-1, DART-A, DART-B, and DART-C was investigated using Biacore analysis in which each diabody construct was passed over immobilized ROR1. Briefly, shROR1-His was captured on immobilized anti-PentaHis surface and was incubated with DART-1, DART-A, DART-B or DART-C at 6.25-100 nM, and the kinetics of binding was determined via Biacore analysis.

[5] = molecular target: T1, His-tagged soluble human ROR1 …; test: SPR (Biacore)
[6] = molecular target: T1, His-tagged soluble human ROR1 …; test: SPR (Biacore), diabody captured via anti-E/K-coil, shROR1-His as analyte
Description: The binding kinetics of DART-1 to DART-6, DART-10 to DART-17, DART-20 to DART-33 was investigated using Biacore analysis in which ROR1 protein was passed over immobilized diabodies. Briefly, each diabody construct was captured on immobilized anti-E/K-coil surface and was incubated with shROR1-His at 25 and 100 nM, and the kinetics of binding were determined via Biacore analysis.

Row | Binder | EC50 (read off the curve) [1] | EC50 nM, redirected cell killing of Calu-3 cells by pan T-cells (LDH release) [2] | EC50 nM, redirected cell killing of JIMT-1 cells by pan T-cells (LDH release) [2] | EC50 nM, redirected cell killing of NCI-H1975 cells by pan T-cells (LDH release) [2] | EC50 (read off the curve) [3] | Kd [4] | fold enhancement of binding relative to DART-A [5] | Kd [6] | fold enhancement of binding relative to DART-1 [5]
1 | B1 | ~2 nM | 0.196 nM | 0.161 nM | 0.266 nM | ~1 nM | 0.69 nM |  |  | 
2 | B2 |  |  |  |  | ~0.8 nM | 0.25 nM | > 2 fold |  | 
3 | B3 |  |  |  |  |  |  |  | 1.1 nM | > 2 fold
